Assay results published in article PMC3351170 (Nucleic Acids Research, 2012).

Tests used:
SEC [1] = molecular target: the molecule itself; experiment: SEC
SEC [2] = molecular target: the molecule itself; experiment: SEC; remark: listed apart in the source
AUC = molecular target: the molecule itself; experiment: AUC

B1: SATB1 ubiquitin-like domain (ULD), residues 71-172 (domain or fragment, mouse, UniProt Q60611 71-172, looked up)
chain: GTMLPVFCVVEHYENAIEYDCKEEHAEFVLVRKDMLFNQLIEMALLSLGYSHSSAAQAKGLIQVGKWNPVPLSYVTDAPDATVADMLQDVYHVVTLKIQLHS
- stoichiometry N (SEC [1]): 4

B2: SATB1 EFH-AAA mutant, full length (natural protein, mouse, UniProt Q60611 1-764, looked up)
chain: MDHLNEATQGKEHSEMSNNVSDPKGPPAKIARLEQNGSPLGRGRLGSTGGKMQGVPLKHSGHLMKTNLRKGTMLPVFCVVEHYENAIEYDCKEEHAAAVLVRKDMLFNQLIEMALLSLGYSHSSAAQAKGLIQVGKWNPVPLSYVTDAPDATVADMLQDVYAVVTLKIQLHSCPKLEDLPPEQWSHTTVRNALKDLLKDMNQSSLAKECPLSQSMISSIVNSTYYANVSAAKCQEFGRWYKHFKKTKDMMVEMDSLSELSQQGANHVNFGQQPVPGNTAEQPPSPAQLSHGSQPSVRTPLPNLHPGLVSTPISPQLVNQQLVMAQLLNQQYAVNRLLAQQSLNQQYLNHPPPVSRSMNKPLEQQVSTNTEVSSEIYQWVRDELKRAGISQAVFARVAFNRTQGLLSEILRKEEDPKTASQSLLVNLRAMQNFLQLPEAERDRIYQDERERSLNAASAMGPAPLLSTPPSRPPQVKTATLATERNGKPENNTMNINASIYDEIQQEMKRAKVSQALFAKVAATKSQGWLCELLRWKEDPSPENRTLWENLSMIRRFLSLPQPERDAIYEQESNAVHHHGDRPPHIIHVPAEQIQQQQQQQQQQQQQQQPPPPPPQPQPQPQAGPRLPPRQPTVASSAESDEENRQKTRPRTKISVEALGILQSFIQDVGLYPDEEAIQTLSAQLDLPKYTIIKFFQNQRYYLKHHGKLKDNSGLEVDVAEYKDEELLKDLEESVQDKNANTLFSVKLEEELSVEGSTDVNADLKD
- binding result (SEC [2]): binds

B3: SATB1 KWN-AAA mutant, full length (natural protein, mouse, UniProt Q60611 1-764, looked up)
chain: MDHLNEATQGKEHSEMSNNVSDPKGPPAKIARLEQNGSPLGRGRLGSTGGKMQGVPLKHSGHLMKTNLRKGTMLPVFCVVEHYENAIEYDCKEEHAEFVLVRKDMLFNQLIEMALLSLGYSHSSAAQAKGLIQVGAAAPVPLSYVTDAPDATVADMLQDVYHVVTLKIQLHSCPKLEDLPPEQWSHTTVRNALKDLLKDMNQSSLAKECPLSQSMISSIVNSTYYANVSAAKCQEFGRWYKHFKKTKDMMVEMDSLSELSQQGANHVNFGQQPVPGNTAEQPPSPAQLSHGSQPSVRTPLPNLHPGLVSTPISPQLVNQQLVMAQLLNQQYAVNRLLAQQSLNQQYLNHPPPVSRSMNKPLEQQVSTNTEVSSEIYQWVRDELKRAGISQAVFARVAFNRTQGLLSEILRKEEDPKTASQSLLVNLRAMQNFLQLPEAERDRIYQDERERSLNAASAMGPAPLLSTPPSRPPQVKTATLATERNGKPENNTMNINASIYDEIQQEMKRAKVSQALFAKVAATKSQGWLCELLRWKEDPSPENRTLWENLSMIRRFLSLPQPERDAIYEQESNAVHHHGDRPPHIIHVPAEQIQQQQQQQQQQQQQQQPPPPPPQPQPQPQAGPRLPPRQPTVASSAESDEENRQKTRPRTKISVEALGILQSFIQDVGLYPDEEAIQTLSAQLDLPKYTIIKFFQNQRYYLKHHGKLKDNSGLEVDVAEYKDEELLKDLEESVQDKNANTLFSVKLEEELSVEGSTDVNADLKD
- stoichiometry N (AUC): 2
